Data from US11254722B2, “Recombinant proteins and uses thereof” (ACADEMIA SINICA, priority 2017, dated 2022).

Assays:
HUVEC cells = test: HUVEC proliferation assay; assay type: cell-based; conditions: FIG. 6, FIG. 13
Protocol: MCF-7 cells (a breast cancer cell line) were maintained in MEM (GIBCO) plus insulin and NEAA and 10% FBS (Hyclone).
For the proliferation assay, cells except for HUVEC were seeded at a density of 1,000 to 6,000 in 96 wells in an assay buffer of DMEM/F12 plus 0.2% BSA and 10 ug/ml transferrin. Chemical inhibitors were added after 16-20 hours after plating; IGF-1 or other growth factors or test chimeras in assay buffer were added at the time of plating or 16-20 hours after plating. 5,000 HUVEC ells were plated in poly-L-lysine coated 96 wells in M199 with 1%/FBS and HEPES. After 3 to 4 days of culture, growth was determined by incubating cells with Alamar blue for 4 to 6 hours and then the fluorescence (RFU) at 544/590 nm was read. For long term proliferation assays, cells were plated in the growth media with 5% or 10% FBS at densities of 500 to 10,000 cells per cm^2 growth area and grown for 7 to 21 days. Inhibitors and effectors were added 1-4 days after plating. Cells were exposed to cisplatin or gemcitabine for two days. Medium was renewed twice weekly. At completion, cells were fixed and then stained with Giemsa.
Growth factor synergism can also be observed in the proliferation of HUVEC cells.

VEGF = target: T1, VEGF (Homo sapiens, UniProt P15692); test: Stability: VEGF binding remaining after overnight incubation; assay type: physicochemical; conditions: experiment 3-192
T1 construct: purchased R&D Systems
T1 sequence (P15692 27-191 isoform P15692-4): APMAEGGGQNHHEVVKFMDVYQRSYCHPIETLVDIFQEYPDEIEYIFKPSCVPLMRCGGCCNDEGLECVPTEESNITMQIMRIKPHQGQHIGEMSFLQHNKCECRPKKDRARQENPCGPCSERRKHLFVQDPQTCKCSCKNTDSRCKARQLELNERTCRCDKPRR
Protocol: Plates were coated with goat anti-human Fc antibody, blocked and then incubated with chimera as in the Fc ELISA. Biotinylated IGF-1 (GroPep) or VEGF-Biotin (R&D Systems VEGF biotinylated with sulfo-NHS-LC-biotin as per instructions (Pierce) was added for 2 hours followed by streptavidin-HRP (Jackson Immunoresearch) for 30 minutes. Chromogenic development with tetramethyl benzidine was performed as described above.
To test the stability of the present chimeras, some purified chimeras (see, Table 4) were incubated with PBS or a conditioned medium from the MCF-7 cell line overnight at 37° C. and PBS overnight at 4° C. The IGF-1 binding and VEGF binding were measured using the biotinylated IGF-1 and VEGF.

B1: Chimera B: IGFBP3 with IGFBP3 linker deletion 1-GS 16 linker-v1v2-Fc, SEQ ID NO: 19 (protein)
chain: MSEVPVARVWLVLLLLTVQVGVTAGGASSAGLGPVVRCEPCDARALAQCAPPPAVCAELVREPGCGCCLTCALSEGQPCGIYTERCGSGLRCQPSPDEARPLQALLDGRGLCVNASAVSKGHAKDSQRYKVDYESQSTDTQNFSSESKRETEYGPCRREMEDTLNHLKFLNVLSPRGVHIPNCDKKGFYKKKQCRPSKGRKRGFCWCVDKYGQPLPGYTTKGKEDVHCYSMQSKGGGGSGGGGSGGGGSGIYIFISDTGRPFVEMYSEIPEIIHMTEGRELVIPCRVTSPNITVTLKKFPLDTLIPDGKRIIWDSRKGFIISNATYKEIGLLTCEATVNGHLYKTNYLTHRQGYRIYDVVLSPSHGIELSVGEKLVLNCTARTELNVGIDFNWEYPSSKHQHKKLVNRDLKTQSGSEMKKFLSTLTIDGVTRSDQGLYTCAASSGLMTKKNSTFVRVHEKVECPPCPAPPVAGPSVFLFPPKPKDQLMISRTPEVTCVVVDVSHEDPEVKFNWYVDGVEVHNAKTKPREEQYNSTYRVVSVLTVLHQDWLNGKEYKCKVSNKGLPSSIEKTISKAKGQPREPQVYTLPPSREEMTKNQVSLTCLVKGFYPSDIAVEWESNGQPENNYKTTPPVLDSDGSFFLYSKLTVDKSRWQQGNVFSCSVMHEGLHNHYTQKSLSLSPGK
HUVEC cells
  inhibition of VEGF-induced proliferation of HUVEC cells: potent inhibition
VEGF; MCF-7 conditioned medium overnight at 37° C.
  VEGF binding remaining over control, mcf7: 73%
VEGF; PBS overnight at 37° C.
  VEGF binding remaining over control, 37 con: 101%
